Here are results for 9 substances from patent publication US20200024330A1.

The term IC50 denotes the concentration needed to halve the response being measured.

Holding throughout (experiment): cell-based or functional assay
The target of assay [1] is HIV-1 92TH021 envelope protein (Env) on pseudovirus (HIV-1).
In assay [2] the target is HIV-1 93IN905 Env (HIV-1).
In assay [3] the target is HIV-1 94KE105 envelope glycoprotein (Env) (HIV-1).
For assay [4], the target named is HIV-1 CMU02 envelope protein (Env) on pseudovirus (HIV-1).
In assay [5] the target is HIV-1 Env of isolate 92UG005 (clade D) (HIV-1).
For assay [6], the target named is HIV-1 Env of isolate 92UG024 (clade D) (HIV-1).
Assay [7] has as its target HIV-1 Env of isolate MGRM-G-014 (clade G pseudovirus) (HIV-1).
For assay [8], the target named is HIV-1 Env of isolate MGRM-G-027 (clade G pseudovirus) (HIV-1).
For assay [9], the target named is HIV-1 Env of pseudovirus JRCSF, clade B (HIV-1) (UniProt P20871).
Assay [10] concerns the target HIV-1 Env of pseudovirus MGRM-Chronic-B-004, clade B (HIV-1).
In assay [11] the target is HIV-1 LAVI_C3 Env (HIV-1).
Assay [12] concerns the target HIV-1 MGRM-A-004 envelope glycoprotein (Env) (HIV-1).
Assay [13] addresses HIV-1 MGRM-C-015 Env (HIV-1).
Assay [14] addresses HIV-1 MGRM-F1-017 Env (pseudovirus) (HIV-1).
Assay [15] has as its target aMLV envelope protein on pseudovirus.
For assay [16], the target named is HIV-1 Env of isolate 92TH021 (HIV-1).
Assay [17] concerns the target HIV-1 Env of isolate 92UG037 (HIV-1).
Assay [18] addresses HIV-1 Env of isolate MGRM-AE-002 (CRF01_AE), on pseudovirus (HIV-1).
Assay [19] addresses HIV-1 Env of isolate MGRM-AE-003 (CRF01_AE), on pseudovirus (HIV-1).
The target in assay [20] is HIV-1 Env of isolate MGRM-AE-005 (CRF01_AE), on pseudovirus (HIV-1).
Assay [21] has as its target HIV-1 Env of isolate MGRM-C-010 (HIV-1).
The target in assay [22] is HIV-1 Env of isolate MGRM-C-025 (HIV-1).
Assay [23] addresses HIV-1 Env of isolate MGRM-D-005 (HIV-1).
The target in assay [24] is HIV-1 Env of isolate MGRM-D-008 (HIV-1).
The target in assay [25] is HIV-1 Env of isolate MGRM-D-014 (HIV-1).
Assay [26] addresses HIV-1 Env of isolate MGRM-F1-008 (subtype F), on pseudovirus (HIV-1).
The target in assay [27] is HIV-1 Env of isolate MGRM-F1-020 (subtype F), on pseudovirus (HIV-1).
The target in assay [28] is HIV-1 Env of isolate TRJ04551.58 (HIV-1).
Assay [29] addresses HIV-1 Env of isolate TRO.11 (HIV-1).
Assay [30] has as its target HIV-1 Env of isolate VLGCB3 (HIV-1).
Assay [31] addresses HIV-1 JR-CSF Env G471A (HIV-1 (isolate JR-CSF)) (UniProt P20871).
Assay [32] deals with HIV-1 JR-CSF Env N134A (HIV-1 (isolate JR-CSF)) (UniProt P20871).
The target of assay [33] is HIV-1 JR-CSF Env V127A (HIV-1 (isolate JR-CSF)) (UniProt P20871).
Assay [34] addresses HIV-1 MGRM-D-018 envelope glycoprotein (Env) on pseudovirus (HIV-1).

Regarding 2F5 (antibody), the neutralization IC50 in assay [1] was 1.51 µg/mL; in assay [4], 0.38 µg/mL; in assay [15], more than 50 µg/mL. The IC50 in [2], in assay [11] and in assay [13] was more than 50 µg/mL each time. Moreover, the IC50 (µg/ml), pseudovirus neutralization in assay [3] was more than 50 µg/mL; in assay [5], 8.61 µg/mL; in assay [6], 0.95 µg/mL; in [7], 9.65 µg/mL; in assay [8] it was 0.28 µg/mL; in [9], 1.85 µg/mL. For the same substance, the IC50 (µg/ml), pseudovirus neutralization in assay [10] was 2.41 µg/mL; in [12], 7.49 µg/mL; in [14] it was more than 50 µg/mL.
2G12 (antibody): the neutralization IC50 in assay [1], in [4] and in assay [15] was more than 50 µg/mL in each case. For the same substance, the figures for the IC50 in assay [2], in assay [11] and in [13] were more than 50 µg/mL, more than 50 µg/mL and 1.75 µg/mL, respectively. The IC50 (µg/ml), pseudovirus neutralization is 7.22 µg/mL in assay [3]; more than 50 µg/mL in [16]; more than 50 µg/mL in [5]; 0.42 µg/mL in assay [6]; more than 50 µg/mL in assay [7]; more than 50 µg/mL in assay [8]. Moreover, the IC50 (µg/ml), pseudovirus neutralization is 0.37 µg/mL in assay [9], 8.65 µg/mL in assay [10], more than 50 µg/mL in assay [12] and more than 50 µg/mL in assay [14].
5114_A19 (PGT-128) (antibody): the neutralization IC50 in [17] stood at 0.006 µg/mL. Moreover, the IC50, single-round pseudovirus neutralization stood at 0.522 µg/mL in assay [18], 0.18 µg/mL in assay [19] and 0.032 µg/mL in assay [20]. The IC50 in assay [21] was more than 50 µg/mL; in assay [22] it was 10.5 µg/mL; in [23] it was 0.051 µg/mL; in [24] it was 0.033 µg/mL; in assay [25] it was 0.013 µg/mL; in [28], 0.019 µg/mL. Besides, the IC50 amounted to 0.018 µg/mL in assay [29] and 0.012 µg/mL in assay [30]. Further, the IC50, pseudovirus neutralization in [26] is more than 50 µg/mL; in [27] it was 0.355 µg/mL. For the same substance, the Fold IC50 increase relative to wild-type was determined as 0.9 fold in assay [31], 1.2 fold in [32] and 1.1 fold in [33].
5136_H01 (PGT-131) (antibody): the neutralization IC50 in [17] worked out at 0.048 µg/mL. The IC50, single-round pseudovirus neutralization in assay [18] is more than 50 µg/mL; in [19], 1.41 µg/mL; in [20], 0.017 µg/mL. The IC50 is more than 50 µg/mL in assay [21]; more than 50 µg/mL in assay [22]; more than 50 µg/mL in assay [23]; more than 50 µg/mL in assay [24]; 0.516 µg/mL in assay [25]; 0.088 µg/mL in assay [28]. The IC50 in assay [29] was 1.91 µg/mL; in [30], more than 50 µg/mL. In addition, the IC50, pseudovirus neutralization in assay [26] was 2.74 µg/mL; in [27], more than 50 µg/mL. Further, the results for the Fold IC50 increase relative to wild-type in [31], in assay [32] and in assay [33] were 1.2 fold, 0.5 fold and 0.6 fold, respectively.
As for 5147_N06 (PGT-130) (antibody), the neutralization IC50 was 0.474 µg/mL in assay [5], more than 10 µg/mL in assay [6] and 0.061 µg/mL in assay [17]. The neutralization IC80 in assay [5] and in assay [6] was more than 10 µg/mL throughout. The neutralization IC90 in [5] and in [6] was more than 10 µg/mL in each case. For the same substance, the neutralization IC95 in [5] and in assay [6] was more than 10 µg/mL each time. Moreover, the IC50, single-round pseudovirus neutralization in assay [18] stood at 1.53 µg/mL; in [19] it was 0.337 µg/mL; in assay [20], 0.006 µg/mL. Besides, the IC50 in [21] is more than 50 µg/mL; in [22] it was more than 50 µg/mL; in assay [23] it was more than 50 µg/mL; in assay [24] it was more than 50 µg/mL; in assay [25], 0.061 µg/mL; in assay [28], 0.023 µg/mL. For the same substance, the IC50 was 0.257 µg/mL in assay [29] and 4.6 µg/mL in assay [30]. Besides, the results for the IC50, pseudovirus neutralization in assay [26] and in assay [27] were 0.065 µg/mL and 9.73 µg/mL, respectively. In addition, the Fold IC50 increase relative to wild-type was found to be 0.8 fold in assay [31], 0.6 fold in assay [32] and 0.8 fold in [33]. The substance also showed an IC50 (ug/ml), neutralizing activity in [34] of 0.0378 µg/mL.
As for 5329_C19 (PGT-136) (antibody), the neutralization IC50 in assay [17] was more than 50 µg/mL. The IC50, single-round pseudovirus neutralization in assay [18], in assay [19] and in assay [20] was more than 50 µg/mL each time. For the same substance, the half-maximal inhibitory concentration (IC50) in assay [21], in [22], in [23], in assay [24], in [25] and in [28] was more than 50 µg/mL throughout. Also, the IC50 in assay [29] was 0.073 µg/mL; in [30], more than 50 µg/mL. Further, the IC50, pseudovirus neutralization was more than 50 µg/mL in [26] and 9.31 µg/mL in [27].
Substance 5343_B08 (PGT-135) (antibody) registered a neutralization IC50 in [17] of 3.67 µg/mL. Moreover, the IC50, single-round pseudovirus neutralization in [18], in assay [19] and in assay [20] was more than 50 µg/mL in each case. The 50% inhibitory concentration (IC50) in assay [21] is more than 50 µg/mL; in [22], more than 50 µg/mL; in [23], more than 50 µg/mL; in assay [24], more than 50 µg/mL; in [25] it was 2.21 µg/mL; in [28], more than 50 µg/mL. Further, the IC50 was found to be 0.03 µg/mL in assay [29] and 0.142 µg/mL in assay [30]. Besides, the IC50, pseudovirus neutralization in [26] is more than 50 µg/mL; in assay [27], 0.168 µg/mL. Besides, the Fold IC50 increase relative to wild-type in assay [31] turned out to be 3 fold; in [32] it was 0.2 fold; in assay [33], 1.4 fold.
5345_I01 (PGT-137) (antibody) showed a neutralization IC50 in assay [17] of more than 50 µg/mL. Also, the IC50, single-round pseudovirus neutralization in [18], in assay [19] and in assay [20] was more than 50 µg/mL throughout. The IC50 in assay [21], in assay [22], in [23], in [24], in assay [25] and in [28] was more than 50 µg/mL in each case. Also, the values for the half-maximal inhibitory concentration (IC50) in assay [29] and in assay [30] were 9.35 µg/mL and 3.36 µg/mL, respectively. For the same substance, the IC50, pseudovirus neutralization in assay [26] was more than 50 µg/mL; in [27], 1.93 µg/mL.
In the case of b12 (antibody), the results for the neutralization IC50 in [1], in assay [4] and in assay [15] were 9.99 µg/mL, 4.25 µg/mL and more than 50 µg/mL, respectively. The figures for the concentration for half-maximal inhibition (IC50) in assay [2], in assay [11] and in assay [13] were 21.4 µg/mL, 0.94 µg/mL and 13.3 µg/mL, respectively. Also, the IC50 (µg/ml), pseudovirus neutralization in assay [3] is more than 50 µg/mL; in assay [5] it was more than 50 µg/mL; in assay [6] it was 45.6 µg/mL; in assay [7], more than 50 µg/mL; in [8], more than 50 µg/mL; in assay [9] it was 0.21 µg/mL. Also, the IC50 (µg/ml), pseudovirus neutralization in assay [10] was 0.26 µg/mL; in assay [12], more than 50 µg/mL; in assay [14], more than 50 µg/mL.
